From patent US20090226444A1 (MICROMET, published 2009)

T1: soluble human CEA antigen (sCEA; Abcam, Ltd, Cambridge UK) (human, UniProt P06731 35-685, limits assumed)
T1 construct: Bought soluble CEA; also called soluble CEA; immobilized CEA antigen
T1 sequence: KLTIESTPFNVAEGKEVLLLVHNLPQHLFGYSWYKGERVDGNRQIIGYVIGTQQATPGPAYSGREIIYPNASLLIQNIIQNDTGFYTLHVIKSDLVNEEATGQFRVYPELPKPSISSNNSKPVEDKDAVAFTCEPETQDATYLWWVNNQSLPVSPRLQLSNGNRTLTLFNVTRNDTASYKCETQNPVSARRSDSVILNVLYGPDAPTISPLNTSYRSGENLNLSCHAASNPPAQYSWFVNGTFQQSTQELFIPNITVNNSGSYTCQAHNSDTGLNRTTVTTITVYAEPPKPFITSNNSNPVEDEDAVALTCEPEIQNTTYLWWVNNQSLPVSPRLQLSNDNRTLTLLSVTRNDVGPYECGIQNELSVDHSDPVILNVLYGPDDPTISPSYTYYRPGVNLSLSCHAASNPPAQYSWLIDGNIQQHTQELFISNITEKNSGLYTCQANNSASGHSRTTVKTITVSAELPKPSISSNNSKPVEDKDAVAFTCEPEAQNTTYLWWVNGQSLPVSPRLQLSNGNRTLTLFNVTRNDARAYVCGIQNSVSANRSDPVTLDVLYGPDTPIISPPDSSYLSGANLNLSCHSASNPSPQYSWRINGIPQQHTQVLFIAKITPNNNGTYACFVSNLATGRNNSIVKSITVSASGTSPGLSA

T2: human CEA (carcinoembryonic antigen-related cell adhesion molecule 5; CEACAM5), membrane-bound on cells (human, UniProt P06731 35-685)
T2 sequence: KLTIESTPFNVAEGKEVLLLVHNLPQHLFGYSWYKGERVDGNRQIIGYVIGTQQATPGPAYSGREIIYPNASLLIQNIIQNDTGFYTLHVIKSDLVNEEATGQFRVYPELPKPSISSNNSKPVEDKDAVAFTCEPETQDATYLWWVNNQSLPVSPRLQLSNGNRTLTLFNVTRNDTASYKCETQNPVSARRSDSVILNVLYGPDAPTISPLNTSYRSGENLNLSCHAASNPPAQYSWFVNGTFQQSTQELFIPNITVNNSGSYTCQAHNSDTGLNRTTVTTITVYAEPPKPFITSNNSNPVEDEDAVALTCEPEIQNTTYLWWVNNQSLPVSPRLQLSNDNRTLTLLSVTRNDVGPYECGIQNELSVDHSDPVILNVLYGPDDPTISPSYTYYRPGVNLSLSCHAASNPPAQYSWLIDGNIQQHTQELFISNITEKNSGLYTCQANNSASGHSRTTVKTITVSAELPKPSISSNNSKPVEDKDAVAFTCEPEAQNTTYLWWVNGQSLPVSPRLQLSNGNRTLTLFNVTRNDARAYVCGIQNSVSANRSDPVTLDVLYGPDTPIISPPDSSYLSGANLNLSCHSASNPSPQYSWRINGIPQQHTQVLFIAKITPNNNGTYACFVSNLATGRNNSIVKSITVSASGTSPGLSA


How the values were obtained:
[1] = biological target: T1, soluble human CEA antigen (sCEA; Abcam, …); test: not described (own data)
[2] = biological target: T1, soluble human CEA antigen (sCEA; Abcam, …); test: cell-based or functional assay
[3] = biological target: T2, human CEA (carcinoembryonic …); test: cell-based or functional assay

Row | Binder | binding result [1] | Inhibitory factor (ADCC EC50 with 1 ug/ml sCEA divided by EC50 without sCEA) [2] [fold] | Inhibitory factor (ADCC EC50 with 10 ug/ml sCEA divided by EC50 without sCEA) [2] [fold] | ADCC EC50, sCEA 0 ug/ml [3] [ng/mL] | ADCC EC50 in the presence of sCEA 1 ug/ml [3] [ng/mL] | ADCC EC50 in the presence of sCEA 10 ug/ml [3] [ng/mL]
1 | murine monoclonal antibody A5B7 (antibody, V domains shown, The parental murine monoclonal; also called mAb A5B7) VH: EVQLVESGGGLVQPGGSLRLSCATSGFTFTDYYMNWVRQPPGKALEWLGFIGNKANGYTTEYSASVKGRFTISRDKSQSILYLQMNTLRAEDSATYYCTRDRGLRFYFDYWGQGTTVTVSS VL: DIELTQSPAILSASPGEKVTMTCRASSSVTYIHWYQQKPGSSPKSWIYATSNLASGVPARFSGSGSGTSYSLTISRVEAEDAATYYCQHWSSKPPTFGGGTKLEIK | binds |  |  |  |  | 
2 | IgG1 A5, derived from scFv A5 (antibody, V domains shown) VH: EVQLVESGGGVVQPGRSLRLSCAASGFTLSTYAMHWVRQAPGKGLEWVALISNDGSNKYYADSVKGRFTISRDNSKNTLYLQMNSLRAEDTAVYYCARDRGLRFYFDYWGQGTTVTVSS VL: QAVLTQPASLSASPGASASLTCTLRRGINVGAYSIYWYQQKPGSPPQYLLRYKSDSDKQQGSGVSSRFSASKDASANAGILLISGLQSEDEADYYCMIWHSGASAVFGGGTKLTVLG |  | 1.5 | 1 | 2.7 | 4 | 2.8
3 | IgG1 B9, derived from scFv B9 (antibody, V domains shown) VH: EVQLVESGGGLVQPGRSLRLSCAASGFTVSSYWMHWVRQAPGKGLEWVGFIRNKANGGTTEYAASVKGRFTISRDDSKNTLYLQMNSLRAEDTAVYYCARDRGLRFYFDYWGQGTTVTVSS VL: QAVLTQPASLSASPGASASLTCTLRRGINVGAYSIYWYQQKPGSPPQYLLRYKSDSDKQQGSGVSSRFSASKDASANAGILLISGLQSEDEADYYCMIWHSGASAVFGGGTKLTVLG |  | 9.4 | 11.1 | 4.8 | 45.3 | 53.4
4 | IgG1 D8, derived from scFv D8 (antibody, V domains shown) VH: EVQLVESGGGVVQPGRSLRLSCAASGFTLSTYAMHWVRQAPGKGLEWVALISNDGSNKYYADSVKGRFTISRDNSKNTLYLQMNSLRAEDTAVYYCTRDRGLRFYFDYWGQGTTVTVSS VL: QAVLTQPASLSASPGASASLTCTLRRGINVGAYSIYWYQQKPGSPPQYLLRYKSDSDKQQGSGVSSRFSASKDASANAGILLISGLQSEDEADYYCMIWHSGASAVFGGGTKLTVLG |  | 3.3 | 1.4 | 4.4 | 14.7 | 6.3
